Source: patent US20090326205A1 (LIV TECH, published 2009)

T1: hDlk-1 EGF-like motif deletion construct EGF (4-6) expressed on COS-7 cells (human, UniProt P80370 131-244)
T1 construct: also called hDlk (EGF 4-6)-pME18-CHFX; hdlk-EGF (4-6)/pME18S-CFHX
T1 sequence: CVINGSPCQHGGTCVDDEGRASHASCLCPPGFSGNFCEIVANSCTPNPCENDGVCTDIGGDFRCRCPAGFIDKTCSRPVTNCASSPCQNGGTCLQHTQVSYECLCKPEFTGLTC

T2: hDlk-1 EGF-like motif deletion construct EGF (5-6) expressed on COS-7 cells (human, UniProt P80370 170-383)
T2 construct: also called hDlk (EGF 5-6)-pME18-CHFX
T2 sequence: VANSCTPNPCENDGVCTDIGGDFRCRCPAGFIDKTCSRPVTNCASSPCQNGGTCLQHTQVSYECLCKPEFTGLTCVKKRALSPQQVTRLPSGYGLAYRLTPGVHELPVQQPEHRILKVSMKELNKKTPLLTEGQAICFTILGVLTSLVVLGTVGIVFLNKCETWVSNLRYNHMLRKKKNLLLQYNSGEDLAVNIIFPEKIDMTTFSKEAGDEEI

T3: purified recombinant hFA-1 protein (hDlk-1 extracellular region, FA-1) (human, UniProt P80370 24-303)
T3 construct: also called human FA1; purified FA-1; not shown: C-terminal Myc tag and His tag from vector pcDNA4/Myc-His
T3 sequence: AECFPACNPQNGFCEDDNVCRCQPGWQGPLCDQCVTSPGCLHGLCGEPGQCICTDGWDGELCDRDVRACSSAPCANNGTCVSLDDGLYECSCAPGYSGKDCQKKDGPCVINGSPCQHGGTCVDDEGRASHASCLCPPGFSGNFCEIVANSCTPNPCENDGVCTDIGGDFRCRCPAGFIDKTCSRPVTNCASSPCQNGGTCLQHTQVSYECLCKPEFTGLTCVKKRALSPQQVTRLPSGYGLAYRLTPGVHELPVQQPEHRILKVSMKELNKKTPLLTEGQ

B1: anti-hDlk-1 monoclonal antibody clone DI-2-14 (mouse IgG1) (antibody, V domains shown)
VH: EVQLQQSGAELVKPGASVKLSCTASGFNIRDTYIHWVKQRPEQGLEWIGRIDPPNGNLKYDPKFQGKATITADTSSNTAYLQFSSLTSEDTAVYYCARSDGYSFAYWGQGTLVTVSA
VL: DIVMTQAAPSVPVTPGESVSISCRSSKSLLHSNGNTYLYWFLQRPGQSPQLLIYRMSNLASGVPDRFSGSGSGTAFTLRISRVEAEDVGVYYCMQHVEYPFTFGSGTKLEIK
notes: also called mouse DI-2-14; mouse DI-2-14 antibody
B2: chimeric DI-2-14 antibody (ChDI-2-14), mouse-human chimeric DI-2-14 IgG1/K (antibody, V domains shown)
VH: B1 VH
VL: B1 VL
notes: domain: human γ1 heavy chain constant region; not shown: human kappa chain constant region (CL) of vector pChDI-2-14

What was measured:
[1] = molecular target: T1, hDlk-1 EGF-like motif deletion …; experiment: FACS and immunostaining of transfected COS-7 cells
Description: (§1) Each of expression vectors hDlk (EGF 1-2)-pME-CHFX, hDlk (EGF 1-3)-pME-CHFX, hDlk (EGF 3-4)-pME-CHFX, hDlk (EGF 4-6)-pME18-CHFX and hDlk (EGF 5-6)-pME18-CHFX (FIG. 7) was introduced into COS-7 cells and they were then subjected to FACS analysis and the immunostaining of Cytospin specimens, so as to examine sites in a region containing 6 EGF-like motifs existing in the FA-1 region (extracellular region) of hDlk-1, which were recognized by each anti-hDlk-1 monoclonal antibody.
(§2) It has been reported that, among mouse IgG isotypes, IgG2a and IgG2b have strong antibody-dependent cytotoxic activity (ADCC) and that the ADCC of IgG1 is low (please refer to Kipps, T. J. et al., 1985). The isotype of the clone DI-2-14 is mouse IgG1.

[2] = molecular target: T2, hDlk-1 EGF-like motif deletion …; experiment: FACS and immunostaining of transfected COS-7 cells
Description: as §1, §2

[3] = molecular target: T3, purified recombinant hFA-1 protein …; experiment: ELISA, purified recombinant hFA-1 (0.5 to 1 µg/mL) immobilized, antibody dilution series
Procedure: ELISA was carried out in the same manner as described in Example 1, using an ELISA plate on which the purified recombinant hFA-1 protein (0.5 to 1 μg/mL) had been immobilized. Specifically, the ELISA plate was washed with a washing buffer 3 times and it was then blocked using a blocking solution at room temperature for 1 hour (or at 4° C. overnight). Thereafter, the plate was washed with a washing buffer 2 times and a mouse DI-2-14 antibody and a ChDI-2-14 antibody, wherein dilution series were produced using an ELISA buffer, were added to the plate, so that they were allowed to react (at 4° C. overnight). Thereafter, the plate was washed with a washing buffer 3 times and it was then allowed to react with HRP-labeled anti-mouse IgG (final concentration: 1 μg/mL) or HRP-labeled anti-human IgG (final concentration: 1 μg/mL) (both products manufactured by GE Healthcare), which had been diluted with a blocking solution.

[4] = molecular target: T3, purified recombinant hFA-1 protein …; experiment: ELISA method of Djavadi-Ohaniance: antibody (0.5 nM) equilibrated with hFA-1 (3.125-50 nM), then added to an hFA-1-coated plate
Procedure: Specifically, the purified recombinant hFA-1 protein (1 μg/mL) was added to a 96-well culture plate (Corning) to fix as an antigen (at room temperature for 1 hour). Subsequently, the plate was washed with PBS 3 times and 2% skim milk (PBS solution) was added thereto for blocking (at room temperature for 1 hour). After the plate had been washed with PBS 2 times, an antigen-antibody complex formed by previously mixing an antigen solution (a purified hFA-1 protein; 50, 25, 12.5, 6.25 and 3.125 nM) with each clone of the anti-hDlk-1 monoclonal antibody (0.5 nM) and then equilibrating the mixture was added to the aforementioned ELISA plate for a reaction (at room temperature for 1 hour). After the plate had been washed with PBS 3 times, it was allowed to react with HRP-labeled anti-mouse IgG (final concentration: 1 μg/mL) or HRP-labeled anti-rat IgG (final concentration: 1 μg/mL) (both of which were available from GE Healthcare Biosciences), which had been diluted with a blocking solution, at room temperature for 1 hour.
Subsequently, the affinity (dissociation constant) of these clones for an antigen was calculated by the aforementioned ELISA method. […] The affinity of the clone 2-13 for the purified recombinant hFA-1 was not high and thus the Kd value thereof could not be calculated by the aforementioned method.

| Binder | binding result [1] | binding result [2] | EC50 [3] [µg/mL] | Kd [4] [nM] |
| --- | --- | --- | --- | --- |
| B1 | no binding | no binding | 0.01 | 9.26 |
| B2 |  |  | 0.01 |  |
